Measured values reported in the nanobody polyreactivity screen of Harvey et al. (2022).

Assay: yeast display, Sf9 membrane polyspecificity reagent, FACS + sequencing; frameworks hold sequencing errors
Summary of the method: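 Genes from sorted yeast were amplified by colony PCR, read by MiSeq 2 × 250 sequencing and filtered on CDR length. These cells carried a synthetic nanobody library in Saccharomyces cerevisiae BJ5465 and were sorted by FACS into low and high (top ~1%) gates on anti-HA and streptavidin fluorescence. Polyreactivity is labelled according to the gate of origin.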

Row | Sequence | polyreactivity (PSR sort gate)
1 | QVQLVESGGGLVQAGGSLRLSCSATGSTFTINSMGWYRQAPGKERELVAATSKRGTNTYYADSVKGRFTISRDNAKNTVYLQMNSMKTEDSAVYYCKAPGHRQNGLGDYWGQGTQVTVSS | high polyreactivity
2 | QVQLVESGGGLVQAGGSLRLSCSAYGSILWYNAMGWYRQAPGKERELVAAINRGGSTNYADSVKGRFTISRDNAKNTVYLQMNSLKPEDTAVYYCAADRLLVSAGGVQFDYWGQGTQVTVSS | low polyreactivity
3 | QVQLVESGGGLVQAGGSLRLSCSDSGFTFARYTMGWYRQPPGKESELVAGISRSTGRTYYADSVKGLFTISRDNAKNTVYLQMNSLKPEDTAVYYCAARATRSLSRSMDYWGQGTQVTVSS | high polyreactivity
4 | QVQLVESGGGLVQAGGSLRLSCSSSGLTLYRYAMGWYRQAPGKERELVAGISWGGGSTYYADSVKGRFTISRDNAKNTVFLQMNSLKPEGNAVYYCAAGRLLYIPRYYYWGQGTQVTVSS | high polyreactivity
5 | QVQLVESGGGLVQAGGSLRLSCTASGSTYVAYAMGLYRQAPGKERELVAAITSSGGRTYYADSVKGRFTISRDNAKNTVYLQMNSLKPEDTAVYYCDAVTHGRYDWGQGTQVTVSS | high polyreactivity
6 | QVQLVESGGGLVQAGGSLRLSCVASGRIFARNAMGWYRQAPGKERELVAAISGSGVRTYYADSVKGRFTISRDNAKNTVYLQMNSLKPEDTAVYYCNAVSGGHRSRYGYWGQGTQVTVSS | high polyreactivity
7 | QVQLVESGGGLVQAGGSLRLSCVASGRIFLTYAMGWYRQAPGKERELVAAISYSGASTYYADSVKGRFTISRDNAKNTVYLQMNSLKPEDTSVYYCATERVGTPRMNYWGQGTQVTVSS | high polyreactivity
8 | QVQLVESGGGLVQAGGSLRLSCVASGRIFYNYAMGWYRQAPGNERELVAAISSSGGRTYYADSVKGRFTISRDNAKNTVYLQMNSLKPEDTAVYYCAADFHDASRPYGSWGQGTQVTVSS | low polyreactivity
9 | QVQLVESGGGLVQAGGSLRLSCVASGSILAYYAMGWYRQAPGKERELVAAISRSGGSTYYADSVKRRFTISRDNAKNTVNLQMNSLKPEDTAVYYCAADFRRWQYNTVNEFGYWGQGTQVTVSS | high polyreactivity
10 | QVQLVESGGGLVQAGGSLRLSFAASGFIFDKYAMGWYRQAPGKERELVATITSGGSTYYADSVKGRFTISRDNAKNYVYLQMYSLKREDTADYYCAALDYGYRWYRYYYWGQGSQVTVSS | high polyreactivity
11 | QVQLVESGGGLVQAGGSLRLSFAASGFIFDYYAMGGYRQEPGKDRELVAAISSSGRTSYADSVKGRFTISRDNAKNTVYLQMNSLKPEDTAVYYCNATWRWTRRGYDYWGQGTQVTVSS | low polyreactivity
12 | QVQLVESGGGLVQAGGSLRLSFAASGFIFYRNTMGWYRQAPGKERELVAGITSGGRTNYADSVKGRFTISRDNAKNTVYLQMNSLKPEYTAVYYCNRVVYTYISTGSRHGRYNYWGQGTQVTVSS | high polyreactivity
13 | QVQLVESGGGLVQAGGSLRLSFAASGFIIGRNAMGWYRQAPGKEREMVAAITSGGNTYYADSVKGRFTISRDNAKNTVYLQMNSLKPEDTAVYYCAARRRYPLVDAGYYWGQGTQVTVSS | high polyreactivity
14 | QVQLVESGGGLVQAGGSLRLSFAASGFTFGWYAMGWYRQAPGKGRELVAAISGGDSRTYADSVKGRFTISRDNAKNTVYLQMNSLKPADTAVYYCNAENRQLYWWTVARSHYGYWGQGTQVTVSS | low polyreactivity
15 | QVQLVESGGGLVQAGGSLRLSFAASGFTFKYYAMGWYRPAPGKERELVAAIRSGGSTYYADSVKGRFTISRDNAKNTVYLQMNSLKPEDTAVYYCNAPAFYRYGLNYWGQGTQVTVSS | high polyreactivity
16 | QVQLVESGGGLVQAGGSLRLSFAASGFTFVNYAMGWYRQAPGKDRELVAAIRRSGSRTYYADSVKGRFTISRDKAKNTVYLQKNSLKPEDTAVYYCAAVWYSLYGNWGQGNQVTVSS | low polyreactivity
17 | QVQLVESGGGLVQAGGSLRLSFAASGIIFVGYAMGWYRQAPGKEMELVAAISTSSRTYYADSVKGRFTISRDNAKNTVYLQMNIQKPEDTAVYYCNARGTRWYYRHEYWGQGTQVTVSS | high polyreactivity
18 | QVQLVESGGGLVQAGGSLRLSFAASGIILGSYAMGWYRQAPGKERELVAGITSGGGTYYADSVKGRFTISRDNAKNTVYLQMNSLKPEDTAVYYCAKLYLHYYRYGYWGQGTQVTVSS | low polyreactivity
19 | QVQLVESGGGLVQAGGSLRLSFAASGINFEHNSMGWYRQAPGKERELVAVISKYGGRTYYADSVKGRFTISRDNAKNTVYLQMNSLKPEDTAVYYCAKRSPFITWNGISYEEYDYWGQGTQVTVSS | low polyreactivity
20 | QVQLVESGGGLVQAGGSLRLSFAASGITFSLYVMGWYRQAPGKERELVAAISYRGGTTYYADSVKGRFTISRDNAKNTVYLQMNSLKPEDTAVYYCAARGSRDRQEAEYGYWGQGTQVTVSS | high polyreactivity
21 | QVQLVESGGGLVQAGGSLRLSFAASGRIFAYYAMGCYRQAPGKERELVASISRSGGRTYYADSVKGRFTISRDNAKNTVYLQMNSLKPEDTAVYYFNRAVWFKSTVDYWGQGTQVTVSS | high polyreactivity
22 | QVQLVESGGGLVQAGGSLRLSFAASGRIFGYYAMGWYRQAPGKERELVAAITTSDGSTYYADSVKGRFTISRDNAKNTVYLQMNSLKPEDTAVYYCNARRWGYQWRGDYWGQGTQVTVSS | high polyreactivity

Row | Sequence | polyreactivity (PSR sort gate)
23 | QVQLVESGGGLVQAGGSLRLSFAASGRIFRSYAMGWYRQAPGKERELVAAITSGGSTYYADSVKGRFTISRDNAKNTVYLQLNSLKPEDTAVYYCNADYDVSSPRPAFDYWGQGTQVTVSS | low polyreactivity
24 | QVQLVESGGGLVQAGGSLRLSFAASGRIFYSNARGWYRQAPGKERELVATITRSSGITYYADSVKGRFTISRDNAKNTVYLQMNSLKTEDTAVYYWADRYSNRWARVSGYDYWGQGTQVTVSS | high polyreactivity
25 | QVQLVESGGGLVQAGGSLRLSFAASGRTFGYYAMGWYRHAPGKERELVAAITRNGGRTYYADSVKGRFTISSDNAKNTFYLQMNSLKPEDTAVYYCAKDQYKPEAFYYWGQGTQVTVSS | high polyreactivity
26 | QVQLVESGGGLVQAGGSLRLSFAASGRTFSRYAMVWYRQAPGKERELVATISFGGSTYYADSVKGRFTISRDNAKNTVYLQMNSLKPEDTALYYCTARYYLNYRGRKYESWGQGTQVTVSS | high polyreactivity
27 | QVQLVESGGGLVQAGGSLRLSFAASGSIFKGYTMGWYIQAPGKEREFVASISRRGGSTYYADSVKGRFTISRDNAKNTVYLQMNSLKPEYTAVYYCAKDYGKAYDYWGQGTQVTVSS | high polyreactivity
28 | QVQLVESGGGLVQAGGSLRLSFAASGSIFPSYAMVWYRQAPGKERELVARISSGDDSTYYADSVKGRFTISRDNAKNTVYLQMNSLKPEDNAVYYCAADYPDVVYLEYDYWGQGTQVTVSS | low polyreactivity
29 | QVQLVESGGGLVQAGGSLRLSFAASGSIFTPNVMGWYRPAPGKERELVAAISQSGGSTFYADSVKGRFTISRDNAKNTVYLQMNSLKPEDTAVYFCATEYYGPVYDLDYDYWGQGTQVTVSS | low polyreactivity
30 | QVQLVESGGGLVQAGGSLRLSFAASGSIFYAYAMGWYRQAPGKERELVAGISGGGSTNYADSVKGRFTISRDNAKNTVYLQMNSLKPEDTAVYYCAADGWLSATYDGLPDSDSWGQGTQVTVSS | high polyreactivity
31 | QVQLVESGGGLVQAGGSLRLSFAASGSTFGLNAMGWYRQAPGKERELVAAITRSDITNYADSVKGRFTISRDNAKNTVYLQMNSLKPEDTAVYYCNKTPDRHRRYFGYGYWGQGTQVTVSS | low polyreactivity
32 | QVQLVESGGGLVQAGGSLRLSFAASGSTFPVYTMGWYRQAPGKERELVAAITGSGGRTYYADSVKGRFTISRDNAKNTVYLQMNSLKPEDTAVYYCNAYPKGRYAAAFPGMDYWGQGTQVTVSS | high polyreactivity
33 | QVQLVESGGGLVQAGGSLRLSFAASGYIFYPNVMGWYRQAPGKERELVADISSGGSTNYADSVKGRFTISRDNAKNTVYLQINSLKPEDTAVYYCAKGPRLYFTRDKAHWKYDYWGQGTQVTVSS | low polyreactivity
34 | QVQLVESGGGLVQAGGSLRLSFAATGRICSPYAMGWYRQAPGKERELVAAISYDDGITYYADSVKGRFTISRDNATNTVYLQMNSLTPEDTAVYYCAADSVTRPAGDYWGQGTQVTVSS | low polyreactivity
35 | QVQLVESGGGLVQAGGSLRLSFAGSGYIFTSYAMRWYRQAPGKERQLVARINYSGGGTSYADSVKGRFTISRDNAKHTVYLQMNSLKQEDTAVYYCAARSYWFRPTKYNYWGQGTQVTVSS | high polyreactivity
36 | QVQLVESGGGLVQAGGSLRLSFAPSGNSFGRYAMGWYRQAPGKERELVAAITRSGGTTYYADSVKGRFTLSRDNAKNTGYLQMNSLKPEDTAVYYCATDGDSTKLDYWGQGTQVTVSS | low polyreactivity
37 | QVQLVESGGGLVQAGGSLRLSFDASGLIFYYYTMGWYRPAPGKERELVAAITWTDVDTYYADSVKGRFTISRDNAKNTVYLQMNSLKPEDTAVYYCAAEGGRTSYGGSGELDYWGQGTQVTVSS | high polyreactivity
38 | QVQLVESGGGLVQAGGSLRLSGAASGFIFIGYTMGWYRQAPGKAWELVATISLGDDSTYYADSVKGRFTISRDNAKNTVYLQMNSLKPEDTAVYYCAGDQKDGTTSAYDYCGQGTQVTVSS | low polyreactivity
39 | QVQLVESGGGLVQAGGSLRLSGAASGFTFDNNAMGWYRQAPGKEREMVAAITGRGSRTNYADSVKGRFTISRDNAKNTVYLQMNSLKPEDTAVYYCATRLWVYGEGSFDDWGQGTQVTVSS | high polyreactivity
40 | QVQLVESGGGLVQAGGSLRLSGAASGRIFDIYAMGWYRQAPGKERELVAGITSVGSTNYADSVKGRFTISRDYAKNTVYLQMNSLKPEDTAVYYCAADTSVHSEVDYGGQGTQVTVSS | low polyreactivity
41 | QVQLVESGGGLVQAGGSLRLSGAASGRIFVRNSMGWYRQAPGKERELVAAISSNGGSTRYADSVKGRFTISRDNAKNTVYLQMNSQKPEDTAVYYCNAYYSHSPRYLKYDYWGQGTQVTVSS | high polyreactivity
42 | QVQLVESGGGLVQAGGSLRLSGAASGRILRRYTMGWSRQAPGKERELVAAISSGGNTYYADSVKGRFTISRDNATNTVYLQMNSLKPEDTAGYYCAARVRRYWEYDYWGQGTQVTVSS | low polyreactivity
43 | QVQLVESGGGLVQAGGSLRLSGAASGRTFGSNDMGWYRQAHGKERELVAAISGRTDSTYYADSVKGRFTISRDIAKNTVYLQMNSLKPEDTAVYYCAADSADVLYYYIRYNYWGQGTQVTVSS | low polyreactivity
